Assay results published in paper PMC8771494.

Target: APC15R (the 15-aa repeat region of Adenomatous polyposis coli, repeats A-D with the linker region) (human)
Assay: cross-linking

Sequence of APC15R (the 15-aa repeat region of Adenomatous polyposis coli, repeats A-D with the linker region) (human) (P25054 2-2843): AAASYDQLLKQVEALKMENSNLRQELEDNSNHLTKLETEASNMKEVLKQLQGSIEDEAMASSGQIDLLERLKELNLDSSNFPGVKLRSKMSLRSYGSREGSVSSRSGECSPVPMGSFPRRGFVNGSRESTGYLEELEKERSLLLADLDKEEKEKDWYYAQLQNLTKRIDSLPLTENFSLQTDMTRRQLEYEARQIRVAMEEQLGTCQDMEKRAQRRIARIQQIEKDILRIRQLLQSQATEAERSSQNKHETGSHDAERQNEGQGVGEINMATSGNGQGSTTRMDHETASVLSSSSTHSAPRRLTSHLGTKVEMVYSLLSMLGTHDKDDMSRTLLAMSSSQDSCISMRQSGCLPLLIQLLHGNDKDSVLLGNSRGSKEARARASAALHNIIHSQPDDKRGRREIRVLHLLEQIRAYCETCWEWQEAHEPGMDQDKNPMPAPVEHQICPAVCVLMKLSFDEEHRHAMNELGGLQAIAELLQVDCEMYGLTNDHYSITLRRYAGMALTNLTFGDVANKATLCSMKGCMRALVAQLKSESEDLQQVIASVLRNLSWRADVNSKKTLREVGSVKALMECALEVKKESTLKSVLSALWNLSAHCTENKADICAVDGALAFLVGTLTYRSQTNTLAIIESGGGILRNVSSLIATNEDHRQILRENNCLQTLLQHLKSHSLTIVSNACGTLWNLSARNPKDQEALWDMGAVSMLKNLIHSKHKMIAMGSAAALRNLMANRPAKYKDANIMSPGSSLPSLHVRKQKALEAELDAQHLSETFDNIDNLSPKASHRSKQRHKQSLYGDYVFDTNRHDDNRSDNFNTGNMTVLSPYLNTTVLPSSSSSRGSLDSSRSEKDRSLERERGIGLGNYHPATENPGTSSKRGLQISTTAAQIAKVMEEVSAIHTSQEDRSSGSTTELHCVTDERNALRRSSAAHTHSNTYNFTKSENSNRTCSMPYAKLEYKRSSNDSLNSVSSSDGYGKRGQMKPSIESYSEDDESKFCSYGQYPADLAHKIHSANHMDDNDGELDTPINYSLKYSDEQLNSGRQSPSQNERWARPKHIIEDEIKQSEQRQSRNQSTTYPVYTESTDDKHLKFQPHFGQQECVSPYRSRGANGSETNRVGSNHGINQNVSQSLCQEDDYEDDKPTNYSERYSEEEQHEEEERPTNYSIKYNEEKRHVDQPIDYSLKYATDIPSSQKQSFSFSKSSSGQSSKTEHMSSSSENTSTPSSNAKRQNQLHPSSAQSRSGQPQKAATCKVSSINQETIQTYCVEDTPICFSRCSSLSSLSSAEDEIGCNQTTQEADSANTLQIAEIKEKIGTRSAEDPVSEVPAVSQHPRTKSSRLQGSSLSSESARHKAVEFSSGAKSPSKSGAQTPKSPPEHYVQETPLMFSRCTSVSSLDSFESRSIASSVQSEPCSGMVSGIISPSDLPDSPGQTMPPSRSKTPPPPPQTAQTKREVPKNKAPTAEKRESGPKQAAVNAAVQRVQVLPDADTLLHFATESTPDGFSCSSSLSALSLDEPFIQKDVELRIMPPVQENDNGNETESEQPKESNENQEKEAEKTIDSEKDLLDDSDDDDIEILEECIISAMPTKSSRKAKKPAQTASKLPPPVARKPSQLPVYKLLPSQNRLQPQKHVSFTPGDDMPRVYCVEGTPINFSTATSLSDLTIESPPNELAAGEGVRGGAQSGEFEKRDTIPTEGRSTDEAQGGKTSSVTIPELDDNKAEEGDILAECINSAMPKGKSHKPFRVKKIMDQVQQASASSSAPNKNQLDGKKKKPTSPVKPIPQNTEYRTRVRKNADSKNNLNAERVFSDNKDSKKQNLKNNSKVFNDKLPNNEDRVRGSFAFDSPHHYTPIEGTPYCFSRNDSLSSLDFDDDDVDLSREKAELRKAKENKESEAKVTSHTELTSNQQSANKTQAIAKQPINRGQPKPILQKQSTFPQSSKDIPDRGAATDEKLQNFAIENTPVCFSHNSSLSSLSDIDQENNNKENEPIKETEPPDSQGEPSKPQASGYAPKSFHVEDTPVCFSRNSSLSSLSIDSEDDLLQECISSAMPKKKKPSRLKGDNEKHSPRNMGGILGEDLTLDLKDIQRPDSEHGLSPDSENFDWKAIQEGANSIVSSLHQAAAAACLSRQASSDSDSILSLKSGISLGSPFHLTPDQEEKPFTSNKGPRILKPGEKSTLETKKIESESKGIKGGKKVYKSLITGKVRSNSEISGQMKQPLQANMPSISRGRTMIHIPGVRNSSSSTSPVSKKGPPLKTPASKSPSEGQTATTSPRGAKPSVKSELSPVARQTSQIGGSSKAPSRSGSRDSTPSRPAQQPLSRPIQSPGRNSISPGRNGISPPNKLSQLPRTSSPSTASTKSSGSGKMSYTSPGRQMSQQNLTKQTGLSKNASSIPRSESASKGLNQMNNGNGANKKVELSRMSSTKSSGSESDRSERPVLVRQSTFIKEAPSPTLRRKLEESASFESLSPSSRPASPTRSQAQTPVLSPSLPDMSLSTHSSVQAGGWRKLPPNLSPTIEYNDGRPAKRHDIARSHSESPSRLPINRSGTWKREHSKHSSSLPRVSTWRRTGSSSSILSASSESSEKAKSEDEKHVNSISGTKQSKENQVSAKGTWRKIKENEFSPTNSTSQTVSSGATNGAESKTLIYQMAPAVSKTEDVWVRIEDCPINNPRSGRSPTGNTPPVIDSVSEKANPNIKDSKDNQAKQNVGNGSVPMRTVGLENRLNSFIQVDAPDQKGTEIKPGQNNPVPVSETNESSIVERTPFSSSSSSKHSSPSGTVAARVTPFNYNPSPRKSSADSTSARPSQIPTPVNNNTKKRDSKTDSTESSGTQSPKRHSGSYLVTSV

stoichiometry N (β-catenin per APC15R): 1
Substance: β-catenin (aa. 150–665), the central region of β-catenin (from UniProt P35222 150-665) (domain or fragment)
